B1: …gsgNLLRLTGW (peptide)
peptide: YMDGTMSQVGSGNLLRLTGW
modifications: not checked
B2: … (Trp-2: 180-188) (peptide)
peptide: SVYDFFVWL
modifications: not checked
B3: … (peptide)
peptide: YLEPGPVTVGSGNLLRLTGW
modifications: not checked
B4: … (GP100: 280-288 (288V)) (peptide)
peptide: YLEPGPVTV
modifications: not checked
B5: … (SSX-2: 41-49) (peptide)
peptide: KASEKIFYV
modifications: not checked
B6: … (peptide)
peptide: SVYDFFVWLGSGNLLRLTGW
modifications: not checked
B7: … (peptide)
peptide: GLYDGMEHLGSGNLLRLTGW
modifications: not checked
B8: … (peptide)
peptide: KASEKIFYVGSGNLLRLTGW
modifications: not checked
B9: …gsgNLLRLTGW (peptide)
peptide: IMDQVPFSVGSGNLLRLTGW
modifications: not checked
B10: … (Gp100 209-217, T210M) (peptide)
peptide: IMDQVPFSV
modifications: not checked
B11: … (Tyrosinase 368-376, 370D) (peptide)
peptide: YMDGTMSQV
modifications: not checked
B12: … (MAGE-10: 254-262) (peptide)
peptide: GLYDGMEHL
modifications: not checked
B13: … (peptide)
peptide: SLLMWITQVGSGNLLRLTGW
modifications: not checked
B14: ALIRJ… (as printed; hybrid antigen of the Vpr: 59-67 epitope) (peptide)
peptide: AIIRILQQLGSGNLLRLTGW
modifications: not checked
B15: … (HIV Vpr: 59-67) (peptide)
peptide: AIIRILQQL
modifications: not checked
B16: … (HIV Nef: 190-198) (peptide)
peptide: ALKHRAYEL
modifications: not checked
B17: … (HIV Nef: 190-198) (peptide)
peptide: AFHHVAREL
modifications: not checked
B18: … (peptide)
peptide: ALKHRAYELGSGNLLRLTGW
modifications: not checked
B19: … (peptide)
peptide: SLFNTVATLGSGNLLRLTGW
modifications: not checked
B20: … (peptide)
peptide: AFHHVARELGSGNLLRLTGW
modifications: not checked
B21: … (peptide)
peptide: VLDVGDAYFSVGSGNLLRLTGW
modifications: not checked
B22: … (HIV Pol: 263-273) (peptide)
peptide: VLDVGDAYFSV
modifications: not checked
B23: RGYVYQGL (VSV nucleoprotein amino acids 52-59) (peptide)
peptide: RGYVYQGL
modifications: not checked
B24: … (peptide)
peptide: SLYNTVATLGSGNLLRLTGW
modifications: not checked
B25: … (peptide)
peptide: NLLRLTGWGSGSIINFEKL
modifications: not checked
B26: … (HIV Gag/p17: 77-85 (79F)) (peptide)
peptide: SLFNTVATL
modifications: not checked
B27: … (peptide)
peptide: VIYQYMDDLGSGNLLRLTGW
modifications: not checked
B28: … (HIV Pol: 334-342) (peptide)
peptide: VIYQYMDDL
modifications: not checked
B29: SIINFEKL (ovalbumin amino acids 257-264) (peptide)
peptide: SIINFEKL
modifications: not checked
B30: … (peptide)
peptide: ILKEPVHGVGSGNLLRLTGW
modifications: not checked
B31: SIINFEKLgsg… (peptide)
peptide: SIINFEKLGSGRKLFFNLRW
modifications: not checked
B32: FYQLALTW (peptide)
peptide: FYQLALTW
modifications: not checked
B33: HWDFAWPWgsg… (peptide)
peptide: HWDFAWPWGSGYMDGTMSQV
modifications: not checked
B34: …gsgHWDFAWPW (peptide)
peptide: IMDQVPFSVGSGHWDFAWPW
modifications: not checked
B35: SIINFEKLgsgHWDFAWPW (peptide)
peptide: SIINFEKLGSGHWDFAWPW
modifications: not checked
B36: TLGIVCPIgsgNLLRLTGW (peptide)
peptide: TLGIVCPIGSGNLLRLTGW
modifications: not checked
B37: …gsgHWDFAWPW (peptide)
peptide: YMDGTMSQVGSGHWDFAWPW
modifications: not checked
B38: SIINFEKLgsgFYQLALTW (peptide)
peptide: SIINFEKLGSGFYQLALTW
modifications: not checked
B39: HWDFAWPWgsgSIINFEKL (peptide)
peptide: HWDFAWPWGSGSIINFEKL
modifications: not checked
B40: SIINFEKLgsgNLLRLTGW (peptide)
peptide: SIINFEKLGSGNLLRLTGW
modifications: not checked
B41: TLGIVCPI (HPV Strain 16 E7 86-93) (peptide)
peptide: TLGIVCPI
modifications: not checked
B42: PSMA P2 hybrid antigen with NLLRLTGW (peptide)
peptide: ALFDIESKVGSGNLLRLTGW
modifications: not checked
B43: … (Prostate Specific Membrane Antigen 771-779) (peptide)
peptide: ALFDIESKV
modifications: not checked
B44: NLLRLTGW (peptide)
peptide: NLLRLTGW
modifications: not checked
B45: … (peptide)
peptide: RKLFFNLRW
modifications: not checked
B46: …gsgHWDFAWPW (peptide)
peptide: YMLDLQPETTGSGHWDFAWPW
modifications: not checked
B47: HWDFAWPW (peptide)
peptide: HWDFAWPW
modifications: not checked
B48: TLGIVCPIgsgHWDFAWPW (peptide)
peptide: TLGIVCPIGSGHWDFAWPW
modifications: not checked
B49: …gsgHWDFAWPW (peptide)
peptide: ALFDIESKVGSGHWDFAWPW
modifications: not checked

The molecules below were run against recombinant human or murine heat shock protein 70 (hsp70) (human or murine) (UniProt P0DMV8) (assay: on hsp70).
Chain of recombinant human or murine heat shock protein 70 (hsp70) (human or murine) (P0DMV8 whole entry): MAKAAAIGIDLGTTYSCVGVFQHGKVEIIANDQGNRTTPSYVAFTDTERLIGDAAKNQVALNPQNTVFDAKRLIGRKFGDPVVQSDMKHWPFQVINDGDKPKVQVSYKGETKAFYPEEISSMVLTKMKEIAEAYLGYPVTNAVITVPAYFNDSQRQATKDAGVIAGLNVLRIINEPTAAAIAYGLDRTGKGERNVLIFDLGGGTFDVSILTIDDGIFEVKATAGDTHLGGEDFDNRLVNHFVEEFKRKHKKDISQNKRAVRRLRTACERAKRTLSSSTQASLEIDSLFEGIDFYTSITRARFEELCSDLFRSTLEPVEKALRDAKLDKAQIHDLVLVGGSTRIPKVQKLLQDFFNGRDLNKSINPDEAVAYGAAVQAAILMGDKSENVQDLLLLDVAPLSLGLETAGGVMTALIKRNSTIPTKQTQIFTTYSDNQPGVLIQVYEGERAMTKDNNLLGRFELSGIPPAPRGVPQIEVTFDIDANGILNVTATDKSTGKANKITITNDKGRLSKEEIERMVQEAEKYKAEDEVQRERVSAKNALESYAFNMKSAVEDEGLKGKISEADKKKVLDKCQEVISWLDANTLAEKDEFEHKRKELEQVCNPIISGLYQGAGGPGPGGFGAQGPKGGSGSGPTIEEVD

Q: With “[…] (HIV Pol: 464-472) (peptide; other documents disagree on this pair)” as the molecule, how does the Kd read?
A: The Kd was 83 µM.

The molecules below were run against recombinant human or murine heat shock protein 70 (hsp70) (human or murine) (UniProt P0DMV8) (assay: binding inhibition assay (Hill plot) against tritiated … on hsp70).

Q: For “[…] (HPV Strain 16 E7 11-20) (peptide; other documents disagree on this pair)”, which Kd is on record?
A: The Kd was 91 µM.

Each molecule was assayed against T1, recombinant human or murine heat shock protein 70 (hsp70) (human or murine), P0DMV8 (assay: binding inhibition assay as in Example 2, on hsp70).
T1 sequence (P0DMV8 whole entry): as above

Q: How did the Kd turn out when B1 was run?
A: The Kd was 1.8 µM.

Q: With B2 as the molecule, how does the Kd read?
A: The Kd was 81 µM.

Q: B3 was tested. Which Kd did it give?
A: Its Kd is 2 µM.

Q: Which Kd does the source give for B4 here?
A: The Kd was 71 µM.

Q: With B5 as the molecule, how does the Kd read?
A: The Kd was 57 µM.

Q: B6 was tested. Which Kd did it give?
A: Its Kd is 2.9 µM.

Q: B7 was tested. Which Kd did it give?
A: The Kd was 1.1 µM.

Q: B8 was tested. Which Kd did it give?
A: The Kd was 1.4 µM.

Q: For B9, which Kd is on record?
A: The Kd was 0.9 µM.

Q: For B10, which Kd is on record?
A: Its Kd is 2570 µM.

Q: How did the Kd turn out when B11 was run?
A: The Kd was 209 µM.

Q: Which Kd does the source give for B12 here?
A: The Kd was 48 µM.

Q: With B13 as the molecule, how does the Kd read?
A: The Kd was 2.2 µM.

What follows are molecules tested against T1, recombinant human or murine heat shock … (assay: on hsp70).

Q: For B14, which Kd is on record?
A: The Kd was 0.6 µM.

Q: B15 was tested. Which Kd did it give?
A: Its Kd is 93 µM.

Q: For B16, which Kd is on record?
A: Its Kd is 97 µM.

Q: Which Kd does the source give for B17 here?
A: Its Kd is 84 µM.

Q: With B18 as the molecule, how does the Kd read?
A: The Kd was 1.1 µM.

Q: How did the Kd turn out when B19 was run?
A: Its Kd is 1.9 µM.

Q: How did the Kd turn out when B20 was run?
A: Its Kd is 2.1 µM.

Q: For B21, which Kd is on record?
A: Its Kd is 2 µM.

Q: For B22, which Kd is on record?
A: Its Kd is 110 µM.

Q: For B23, which Kd is on record?
A: Its Kd is 82 µM.

Q: With B24 as the molecule, how does the Kd read?
A: Its Kd is 1.8 µM.

Q: How did the Kd turn out when B25 was run?
A: The Kd was 1.6 µM.

Q: Which Kd does the source give for B26 here?
A: The Kd was 35 µM.

Q: For B27, which Kd is on record?
A: Its Kd is 1.7 µM.

Q: With B28 as the molecule, how does the Kd read?
A: Its Kd is 91 µM.

Q: For B29, which Kd is on record?
A: The Kd was 235 µM.

Q: B30 was tested. Which Kd did it give?
A: Its Kd is 1.2 µM.

The molecules below were run against T1, recombinant human or murine heat shock … (assay: binding inhibition assay (Hill plot) against tritiated … on hsp70).

Q: For B1, which Kd is on record?
A: Its Kd is 2.65 µM.

Q: Which Kd does the source give for B31 here?
A: Its Kd is 7 µM.

Q: How did the Kd turn out when B32 was run?
A: Its Kd is 5.9 µM.

Q: For B33, which Kd is on record?
A: Its Kd is 29 µM.

Q: For B34, which Kd is on record?
A: The Kd was 155 µM.

Q: B35 was tested. Which Kd did it give?
A: The Kd was 40 µM.

Q: For B36, which Kd is on record?
A: Its Kd is 5.2 µM.

Q: How did the Kd turn out when B37 was run?
A: Its Kd is 24 µM.

Q: How did the Kd turn out when B38 was run?
A: Its Kd is 1.43 µM.

Q: For B39, which Kd is on record?
A: Its Kd is 4.3 µM.

Q: For B40, which Kd is on record?
A: The Kd was 1.2 µM.

Q: B41 was tested. Which Kd did it give?
A: The Kd was 187 µM.

Q: With B42 as the molecule, how does the Kd read?
A: Its Kd is 1.3 µM.

Q: B9 was tested. Which Kd did it give?
A: The Kd was 3.1 µM.

Q: How did the Kd turn out when B43 was run?
A: The Kd was 145 µM.

Q: How did the Kd turn out when B10 was run?
A: Its Kd is 2560 µM.

Q: With B11 as the molecule, how does the Kd read?
A: The Kd was 204 µM.

Q: How did the Kd turn out when B44 was run?
A: Its Kd is 1.85 µM.

Q: How did the Kd turn out when B45 was run?
A: Its Kd is 15 µM.

Q: With B46 as the molecule, how does the Kd read?
A: The Kd was 27 µM.

Q: For B47, which Kd is on record?
A: Its Kd is 120 µM.

Q: With B48 as the molecule, how does the Kd read?
A: The Kd was 9.1 µM.

Q: How did the Kd turn out when B29 was run?
A: The Kd was 279 µM.

The molecules below were run against T1, recombinant human or murine heat shock … (assay: binding inhibition assay (Hill plot) or Scatchard analysis of the reference on hsp70).

Q: B49 was tested. Which Kd did it give?
A: The Kd was 22 µM.

What follows are molecules tested against T1, recombinant human or murine heat shock … (assay: competition against a labeled reporter peptide on HSP70; Kd calculated from IC50 (Hill plot)).

Q: How did the fold increase in affinity over … (SEQ ID NO:368) turn out when B40 was run?
A: The fold increase in affinity over … (SEQ ID NO:368) was 15 fold.
